The target in assay [1] is CXCL12. The assay can be described thus: cell-based or functional assay.
For assay [2], the target named is CXCL12. In words: Bio-Layer Interferometry (BLI). On the technique in general: BLI is a label-free optical method that tracks binding on a fibre tip over time.
Assay [3] deals with CXCL12. In words: Bio-Layer Interferometry; CXCL12 immobilized on AR2G biosensor, different concentrations of CXCL12 trap.
Assay [4] deals with CXCL12. The assay can be described thus: Bio-Layer Interferometry, CXCL12 immobilized on the AR2G biosensor, CXCL12 trap at 500, 250 and 125 nM.

As a reminder, the Kd is a measure of binding affinity in units of concentration. Read a high Kd as weaker binding. As usually defined, the koff is the rate constant with which the complex falls apart. Usually kon stands for a measure of how fast the partners come together.

B1: CXCL12 trap (engineered VH-linker-VL fusion protein, expressed in and purified from 293T cells) (scFv, V domains shown, not shown: small tags and cut ends)
VH: EVQLVESGGGLVQPGGSLRLSCAASGFSLTVYSVHWVRQAPGKGLEWVGALWGSGGTEYNSNLKSRFTISRDTSKNTVYLQMNSLRAEDTAVYYCARDQGLNYGSLFDYWGQGTLVTVSS
VL: DIQMTQSPSSLSASVGDRVTITCRASESISYSLSWYQQKPGKAPKLLIYNAVKLESGVPSRFSGSGSGTDFTLTISSLQPEDFATYYCKQYWNTPFTFGQGTKVEIKR
modifications: flexible linker; C-terminal E tag, His6 tag
Take B1: in the assay with CXCL12 [1], the invasion of CT-26 FL3 cells stimulated with CXCL12 (100.0 ng/ml) is 12 µg/mL, the migration of CT-26 FL3 cells stimulated with CXCL12 (100.0 ng/ml) worked out at 8 µg/mL, the one-half maximal inhibition [ND50] against biological active CXCL12 (100 ng/ml) in vitro is 120 nM and the one-half maximal inhibition [ND50] of CT-26 FL3 cell migration stimulated with CXCL12 (100 ng/ml) is 120 nM. The molecule further returned a Kd in the assay with CXCL12 [2] of 4 nM. For the same molecule, the Kd in the assay with CXCL12 [3] was 4 nM. In the assay with CXCL12 [4], this molecule showed a Kd of 4.1 nM, a koff of 3.64e-05 s⁻¹ and a kon of 8850 M⁻¹ s⁻¹.

(Values after patent US20190381184A1.)
